Experimental data reported in paper PMC7470827.

How the values were obtained:
[1] = target: MBP-tagged Tlg2 SNARE motif (residues 258-327) (Chaetomium thermophilum); assay: AUC; sedimentation velocity, 42,000 rpm, 20°C, gel filtration buffer; MBP-Tlg2(258-327) 9 µM, Tlg2(79-200) 72 µM, Tlg2(258-327) 168 µM; c(S) by SEDFIT
[2] = target: Untagged Tlg2 SNARE motif (residues 258-327) (Chaetomium thermophilum); assay: as above
Syntaxin-16 N-peptide = Syntaxin-16 N-peptide (UniProt Q8BVI5); conditions: cited from earlier work
UniProt Q8BVI5, sequence (Q8BVI5 1-27): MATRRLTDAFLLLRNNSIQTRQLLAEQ

Substance: MBP-tagged Tlg2 SNARE motif (residues 258-327) (domain or fragment)
- stoichiometry N [1]: 4

Substance: Untagged Tlg2 SNARE motif (residues 258-327) (domain or fragment)
- stoichiometry N [2]: 4

Substance: Vps45 (from UniProt P97390)
- Kd (Syntaxin-16 N-peptide): 27 nM
